The Immune Epitope Database (IEDB)

The sequences below were run against HLA-A*02:01 (assay: IEDB peptide-MHC binding, purified MHC/competitive/radioactivity; ≥ and ≤ were set here for values at or beyond the usual limits of such assays). Conditions: source organism: Bordetella pertussis.

Sequence	IC50
GVAPTAQQL	69.4 µM
VLVKTNMVV	11.4 µM
YMIYMSGLA	0.407 µM

Each sequence was assayed against HLA-B*07:02 in the same assay as above. Conditions: source organism: Bordetella pertussis.

Sequence	IC50
FVRSGQPVI	17.6 µM
GPPSRPTTP	69.6 µM
GPSAVAAPA	0.624 µM
PPKPAPVAK	≥ 77.5 µM

These sequences were tested against HLA-B*35:01 in the same assay as above. Conditions: source organism: Bordetella pertussis.

Sequence	IC50
ETFCITTIY	15.8 µM
GKDLKRPGS	69.9 µM
QVGSSNSAF	69.9 µM
VHVSKEEQY	69.9 µM

Each sequence was assayed against HLA-B*44:03 in the same assay as above. Conditions: source organism: Bordetella pertussis.

Sequence	IC50
AAVALLNKL	0.672 µM
AQITSYVGF	2.12 µM

These sequences were tested against HLA-B*53:01 in the same assay as above. Conditions: source organism: Bordetella pertussis.

Sequence	IC50
ETFCITTIY	31.1 µM
MAAESTFES	24.1 µM
MATKGEMQI	58 µM

The sequences below were run against HLA-B*57:01 in the same assay as above. Conditions: source organism: Bordetella pertussis.

Sequence	IC50
AVLVNPHIF	33.3 µM
DDEVDVSGR	≥ 70.4 µM
ITVTSRGGF	0.773 µM
TTLGLEQTF	4.77 µM
